Patent US20140087995A1 (published 2014)
Numbered stars: 1 amine (or outer) side, 2 acyl side, 3 side chain; on linkers, the order of the positions; unused ones are H or OH. Bridge positions count the residues as written; N and C are the ends. Side chains are listed from the residue outwards. Ends that are not written are not given here. * marks the point of attachment. C20 diacid = O=C(O)CCCCCCCCCCCCCCCCCCC(=O)*; C18 diacid = O=C(O)CCCCCCCCCCCCCCCCC(=O)*; C16 diacid = O=C(O)CCCCCCCCCCCCCCC(=O)*; γGlu = O=C(O)[C@H](CCC(=O)[*:2])N[*:1]; C14 diacid = O=C(O)CCCCCCCCCCCCC(=O)*

T1: rat calcitonin receptor (rat, UniProt P32214 25-516)
T1 construct: whole, on cells; Membranes of transiently transfected BHK tk'ts 13 cells; also called rCTR; rat calcitonin (a) receptor
T1 sequence (looked up): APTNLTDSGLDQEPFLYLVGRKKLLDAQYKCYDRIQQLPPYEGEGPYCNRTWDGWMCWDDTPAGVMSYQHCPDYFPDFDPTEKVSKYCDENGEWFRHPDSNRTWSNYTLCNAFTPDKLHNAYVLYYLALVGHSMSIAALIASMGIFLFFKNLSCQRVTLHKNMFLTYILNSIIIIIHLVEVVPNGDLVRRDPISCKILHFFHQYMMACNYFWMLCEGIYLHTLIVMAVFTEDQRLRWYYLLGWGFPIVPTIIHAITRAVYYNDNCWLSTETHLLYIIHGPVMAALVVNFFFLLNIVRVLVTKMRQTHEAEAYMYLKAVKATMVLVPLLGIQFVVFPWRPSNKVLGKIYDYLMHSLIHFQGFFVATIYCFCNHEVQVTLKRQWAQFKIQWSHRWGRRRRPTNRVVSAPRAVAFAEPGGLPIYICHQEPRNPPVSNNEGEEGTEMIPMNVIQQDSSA

T2: human calcitonin receptor (human, UniProt P30988 25-474)
T2 construct: whole, on cells; Membranes of stably transfected cells; also called hCTR; hCT
T2 sequence (looked up): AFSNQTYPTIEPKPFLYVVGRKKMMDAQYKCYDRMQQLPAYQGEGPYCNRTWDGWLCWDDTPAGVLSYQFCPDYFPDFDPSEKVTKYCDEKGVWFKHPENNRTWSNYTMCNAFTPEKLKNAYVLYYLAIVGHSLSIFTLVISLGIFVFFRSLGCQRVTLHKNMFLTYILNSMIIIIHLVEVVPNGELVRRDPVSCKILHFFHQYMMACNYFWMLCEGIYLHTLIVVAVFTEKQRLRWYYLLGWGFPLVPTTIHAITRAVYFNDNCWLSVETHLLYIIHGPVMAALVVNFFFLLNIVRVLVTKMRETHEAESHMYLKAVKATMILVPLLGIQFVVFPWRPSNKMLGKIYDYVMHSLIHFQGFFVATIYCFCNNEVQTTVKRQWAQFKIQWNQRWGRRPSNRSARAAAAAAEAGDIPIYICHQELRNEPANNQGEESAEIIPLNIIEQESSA

T3: rat amylin receptor (rat calcitonin receptor + rat RAMP 3) (rat, UniProt P32214 25-516; Q9JJ73 23-147)
T3 construct: whole, on cells; Membranes of transiently transfected BHK tk'ts 13 cells; also called rAmylin-R; rat amylin 3(a) receptor
T3 sequence (looked up) 1: T1 sequence (looked up)
T3 sequence (looked up) 2: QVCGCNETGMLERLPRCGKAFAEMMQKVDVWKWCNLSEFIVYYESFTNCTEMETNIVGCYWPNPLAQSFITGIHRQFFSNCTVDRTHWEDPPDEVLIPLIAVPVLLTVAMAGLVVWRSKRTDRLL

B1: N^ε1-[(4S)-4-carboxy-4-(13-carboxytridecanoylamino)butanoyl]-[Arg17,Pro21,Pro27,His34]-h-amylin (peptide)
peptide: K([γGlu-C14 diacid])CNTATCATQRLANFLRHSSPNFGAIPSSTNVGHNTY-NH2
modifications: disulfide 2-7; N-terminus assumed
SMILES: CC[C@H](C)[C@H](NC(=O)[C@H](C)NC(=O)CNC(=O)[C@H](Cc1ccccc1)NC(=O)[C@H](CC(N)=O)NC(=O)[C@@H]1CCCN1C(=O)[C@H](CO)NC(=O)[C@H](CO)NC(=O)[C@H](Cc1c[nH]cn1)NC(=O)[C@H](CCCNC(=N)N)NC(=O)[C@H](CC(C)C)NC(=O)[C@H](Cc1ccccc1)NC(=O)[C@H](CC(N)=O)NC(=O)[C@H](C)NC(=O)[C@H](CC(C)C)NC(=O)[C@H](CCCNC(=N)N)NC(=O)[C@H](CCC(N)=O)NC(=O)[C@@H](NC(=O)[C@H](C)NC(=O)[C@@H]1CSSC[C@H](NC(=O)[C@@H](N)CCCCNC(=O)CC[C@H](NC(=O)CCCCCCCCCCCCC(=O)O)C(=O)O)C(=O)N[C@@H](CC(N)=O)C(=O)N[C@@H]([C@@H](C)O)C(=O)N[C@@H](C)C(=O)N[C@@H]([C@@H](C)O)C(=O)N1)[C@@H](C)O)C(=O)N1CCC[C@H]1C(=O)N[C@@H](CO)C(=O)N[C@@H](CO)C(=O)N[C@H](C(=O)N[C@@H](CC(N)=O)C(=O)N[C@H](C(=O)NCC(=O)N[C@@H](Cc1c[nH]cn1)C(=O)N[C@@H](CC(N)=O)C(=O)N[C@H](C(=O)N[C@@H](Cc1ccc(O)cc1)C(N)=O)[C@@H](C)O)C(C)C)[C@@H](C)O
notes: Synthetic acylated analogue of human amylin
B2: N^ε1-[(4S)-4-carboxy-4-(15-carboxypentadecanoylamino)butanoyl]-[Arg17,Pro21,Pro27,His34]-h-amylin (peptide)
peptide: K([γGlu-C16 diacid])CNTATCATQRLANFLRHSSPNFGAIPSSTNVGHNTY-NH2
modifications: disulfide 2-7; N-terminus assumed
SMILES: CC[C@H](C)[C@H](NC(=O)[C@H](C)NC(=O)CNC(=O)[C@H](Cc1ccccc1)NC(=O)[C@H](CC(N)=O)NC(=O)[C@@H]1CCCN1C(=O)[C@H](CO)NC(=O)[C@H](CO)NC(=O)[C@H](Cc1c[nH]cn1)NC(=O)[C@H](CCCNC(=N)N)NC(=O)[C@H](CC(C)C)NC(=O)[C@H](Cc1ccccc1)NC(=O)[C@H](CC(N)=O)NC(=O)[C@H](C)NC(=O)[C@H](CC(C)C)NC(=O)[C@H](CCCNC(=N)N)NC(=O)[C@H](CCC(N)=O)NC(=O)[C@@H](NC(=O)[C@H](C)NC(=O)[C@@H]1CSSC[C@H](NC(=O)[C@@H](N)CCCCNC(=O)CC[C@H](NC(=O)CCCCCCCCCCCCCCC(=O)O)C(=O)O)C(=O)N[C@@H](CC(N)=O)C(=O)N[C@@H]([C@@H](C)O)C(=O)N[C@@H](C)C(=O)N[C@@H]([C@@H](C)O)C(=O)N1)[C@@H](C)O)C(=O)N1CCC[C@H]1C(=O)N[C@@H](CO)C(=O)N[C@@H](CO)C(=O)N[C@H](C(=O)N[C@@H](CC(N)=O)C(=O)N[C@H](C(=O)NCC(=O)N[C@@H](Cc1c[nH]cn1)C(=O)N[C@@H](CC(N)=O)C(=O)N[C@H](C(=O)N[C@@H](Cc1ccc(O)cc1)C(N)=O)[C@@H](C)O)C(C)C)[C@@H](C)O
notes: as for B1
B3: N^ε1-[(4S)-4-carboxy-4-(19-carboxynonadecanoylamino)butanoyl]-[Ala14,Arg17,Pro21,Pro27,His34]-h-amylin (peptide)
peptide: K([γGlu-C20 diacid])CNTATCATQRLAAFLRHSSPNFGAIPSSTNVGHNTY-NH2
modifications: disulfide 2-7; N-terminus assumed
SMILES: CC[C@H](C)[C@H](NC(=O)[C@H](C)NC(=O)CNC(=O)[C@H](Cc1ccccc1)NC(=O)[C@H](CC(N)=O)NC(=O)[C@@H]1CCCN1C(=O)[C@H](CO)NC(=O)[C@H](CO)NC(=O)[C@H](Cc1c[nH]cn1)NC(=O)[C@H](CCCNC(=N)N)NC(=O)[C@H](CC(C)C)NC(=O)[C@H](Cc1ccccc1)NC(=O)[C@H](C)NC(=O)[C@H](C)NC(=O)[C@H](CC(C)C)NC(=O)[C@H](CCCNC(=N)N)NC(=O)[C@H](CCC(N)=O)NC(=O)[C@@H](NC(=O)[C@H](C)NC(=O)[C@@H]1CSSC[C@H](NC(=O)[C@@H](N)CCCCNC(=O)CC[C@H](NC(=O)CCCCCCCCCCCCCCCCCCC(=O)O)C(=O)O)C(=O)N[C@@H](CC(N)=O)C(=O)N[C@@H]([C@@H](C)O)C(=O)N[C@@H](C)C(=O)N[C@@H]([C@@H](C)O)C(=O)N1)[C@@H](C)O)C(=O)N1CCC[C@H]1C(=O)N[C@@H](CO)C(=O)N[C@@H](CO)C(=O)N[C@H](C(=O)N[C@@H](CC(N)=O)C(=O)N[C@H](C(=O)NCC(=O)N[C@@H](Cc1c[nH]cn1)C(=O)N[C@@H](CC(N)=O)C(=O)N[C@H](C(=O)N[C@@H](Cc1ccc(O)cc1)C(N)=O)[C@@H](C)O)C(C)C)[C@@H](C)O
notes: Synthetic acylated analogue of human amylin; also called compound 93
B4: N^ε1-[(4S)-4-carboxy-4-(17-carboxyheptadecanoylamino)butanoyl]-[Arg17,Pro21,Pro27,His34]-h-amylin (peptide)
peptide: K([γGlu-C18 diacid])CNTATCATQRLANFLRHSSPNFGAIPSSTNVGHNTY-NH2
modifications: disulfide 2-7; N-terminus assumed
SMILES: CC[C@H](C)[C@H](NC(=O)[C@H](C)NC(=O)CNC(=O)[C@H](Cc1ccccc1)NC(=O)[C@H](CC(N)=O)NC(=O)[C@@H]1CCCN1C(=O)[C@H](CO)NC(=O)[C@H](CO)NC(=O)[C@H](Cc1c[nH]cn1)NC(=O)[C@H](CCCNC(=N)N)NC(=O)[C@H](CC(C)C)NC(=O)[C@H](Cc1ccccc1)NC(=O)[C@H](CC(N)=O)NC(=O)[C@H](C)NC(=O)[C@H](CC(C)C)NC(=O)[C@H](CCCNC(=N)N)NC(=O)[C@H](CCC(N)=O)NC(=O)[C@@H](NC(=O)[C@H](C)NC(=O)[C@@H]1CSSC[C@H](NC(=O)[C@@H](N)CCCCNC(=O)CC[C@H](NC(=O)CCCCCCCCCCCCCCCCC(=O)O)C(=O)O)C(=O)N[C@@H](CC(N)=O)C(=O)N[C@@H]([C@@H](C)O)C(=O)N[C@@H](C)C(=O)N[C@@H]([C@@H](C)O)C(=O)N1)[C@@H](C)O)C(=O)N1CCC[C@H]1C(=O)N[C@@H](CO)C(=O)N[C@@H](CO)C(=O)N[C@H](C(=O)N[C@@H](CC(N)=O)C(=O)N[C@H](C(=O)NCC(=O)N[C@@H](Cc1c[nH]cn1)C(=O)N[C@@H](CC(N)=O)C(=O)N[C@H](C(=O)N[C@@H](Cc1ccc(O)cc1)C(N)=O)[C@@H](C)O)C(C)C)[C@@H](C)O
notes: as for B1

These binders were tested against T1, rat calcitonin receptor (assay: ratio of IC50 on rat calcitonin receptor to IC50 on rat amylin receptor (reference m40)).

| Ratio rCT/rAmylin binding | Binder |
| --- | --- |
| 280 | B1 |
| 327 | B2 |
| 83.2 | B3 |
| 40.3 | B4 |

Each binder was assayed against T2, human calcitonin receptor (assay: ratio of IC50 on human calcitonin receptor to IC50 on human amylin receptor (reference m42), SPA competition).
Protocol: The resulting pellet was resuspended, homogenized and centrifuged (20.000 rpm, 15 min) in a buffer containing 20 mM Na-HEPES and 0.1 mM EDTA (pH 7.4, buffer 2). The resulting pellet was resuspended in buffer 2 and protein concentration was measured (BCA protein Assay, Pierce). The homogenate was kept cold during the whole procedure. The membranes were kept at −80° C. until use. The assay was performed in a 384 well Optiplate (PerkinElmer) in a total volume of 40 ul. Membranes were mixed with SPA beads. Final concentration of membranes 35 ng/μL final and SPA beads was 0.05 mg/well. Test-compounds were dissolved in DMSO and further diluted in assay buffer (50 mM Hepes, pH 7.4, 1 mM CaCl2, 5 mM MgCl₂, 0.1% OA and 0.02% Tween20). […] The final mixture was incubated with shaking at 400 rpm for 120 min at 25° C. prior to centrifugation (1500 rpm, 10 min). Samples were analyzed on TopCounter™ (Packard). The IC₅₀ was calculated using (one site binding competition analysis) GraphPad Prism5 as a measure of receptor affinity.
Membranes were prepared in the following way; the cells were rinsed with PBS and incubated with Versene for approximately 5 min before harvesting. The cells were flushed with PBS and the cell-suspension was centrifuged for 5 min at 1000 rpm. Cells were homogenized (Ultrathurrax) in a buffer containing 20 mM Na-HEPES and 10 mM EDTA (pH 7.4) and centrifuged at 20.000 rpm for 15 min. The resulting pellet was resuspended, homogenized and centrifuged (20.000 rpm, 15 min) in a buffer containing 20 mM Na-HEPES and 0.1 mM EDTA (pH 7.4, buffer 2). The resulting pellet was resuspended in buffer 2 and protein concentration was measured (BCA protein Assay, Pierce). The homogenate was kept cold during the whole procedure. The membranes were kept at −80° C. until use. Assay was performed in a 384 well Optiplate (PerkinElmer) in a total volume of 40 ul. Membranes were mixed with SPA beads.

| Ratio hCT/hAmylin binding | Binder |
| --- | --- |
| 23.5 | B1 |
| 18.5 | B2 |
| 101 | B3 |
| 59.4 | B4 |

Each binder was assayed against T1, rat calcitonin receptor (assay: SPA competition with 125I-calcitonin on membranes of BHK tk'ts 13 cells with rat calcitonin receptor (Assay VIII)).

| IC50 [nM] | Binder |
| --- | --- |
| 707 | B1 |
| 404 | B2 |
| 131 | B3 |
| 47 | B4 |

Each binder was assayed against T3, rat amylin receptor (rat calcitonin …) (assay: SPA competition with 125I-rat amylin on membranes of BHK tk'ts 13 cells with rat calcitonin receptor + rat RAMP3 (Assay VI)).

| IC50 [nM] | Binder |
| --- | --- |
| 2.52 | B1 |
| 1.24 | B2 |
| 1.58 | B3 |
| 1.17 | B4 |
